Article PMC10580936
Positions count from the first letter of the chain named.

How the values were obtained:
[1] = system: T1, His-FepR wt (Listeria monocytogenes EGD-e), ORF:2866136e; assay: EMSA; conditions: […] (25 mM Tris, pH 5.5), 0.15 mM BSA, 2.5 mM EDTA, 10% glycerol, 20 mM DTT, 5 min at 25 C
T1 sequence: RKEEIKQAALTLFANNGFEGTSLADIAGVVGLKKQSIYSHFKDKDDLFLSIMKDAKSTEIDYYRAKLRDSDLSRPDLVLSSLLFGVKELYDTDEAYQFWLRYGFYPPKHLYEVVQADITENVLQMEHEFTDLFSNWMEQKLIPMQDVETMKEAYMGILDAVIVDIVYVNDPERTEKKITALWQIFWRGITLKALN

[2] = system: T2, His-FepR L24F L23F (Listeria monocytogenes EGD-e), ORF:2866136e; assay: EMSA; conditions: […] (25 mM Tris, pH 5.5), 0.15 mM BSA, 2.5 mM EDTA, 10% glycerol, 20 mM DTT, 5 min at 25 C
T2 sequence: T1 sequence with L23F

Sequence | binding [1] | binding [2]
CATTCCACTCCTCTCACAAAAACTGACGAACGTTCGTAAGTCATTTTCTCATGAAAAAAATTCTTTGTCAACAAAAAAATCCACTCTTTTAAAAGAGTGGATTCATGGATTTATTTTTCTTCTAAAAATTCGCTAATCAATTCGTATGTC (double strand) [PfepR G-27T] | no binding | 
CATTCCACTCCTCTCACAAAAACTGACGACCGTTCGTAAGTCATTTTCTCATGAAAAAAATTCTTTGTCAACAAAAAAATCCACTCTTTTAAAAGAGTGGATTCATGGATTTATTTTTCTTCTAAAAATTCGCTAATCAATTCGTATGTC (double strand) [PfepR wt] | binds | no binding
